According to IntAct's records for PubMed 20865002:

B1: Serine/threonine-protein kinase RAD53 (Saccharomyces cerevisiae), P22216 (parent)
chain: MENITQPTQQSTQATQRFLIEKFSQEQIGENIVCRVICTTGQIPIRDLSADISQVLKEKRSIKKVWTFGRNPACDYHLGNISRLSNKHFQILLGEDGNLLLNDISTNGTWLNGQKVEKNSNQLLSQGDEITVGVGVESDILSLVIFINDKFKQCLEQNKVDRIRSNLKNTSKIASPGLTSSTASSMVANKTGIFKDFSIIDEVVGQGAFATVKKAIERTTGKTFAVKIISKRKVIGNMDGVTRELEVLQKLNHPRIVRLKGFYEDTESYYMVMEFVSGGDLMDFVAAHGAVGEDAGREISRQILTAIKYIHSMGISHRDLKPDNILIEQDDPVLVKITDFGLAKVQGNGSFMKTFCGTLAYVAPEVIRGKDTSVSPDEYEERNEYSSLVDMWSMGCLVYVILTGHLPFSGSTQDQLYKQIGRGSYHEGPLKDFRISEEARDFIDSLLQVDPNNRSTAAKALNHPWIKMSPLGSQSYGDFSQISLSQSLSQQKLLENMDDAQYEFVKAQRKLQMEQQLQEQDQEDQDGKIQGFKIPAHAPIRYTQPKSIEAETREQKLLHSNNTENVKSSKKKGNGRFLTLKPLPDSIIQESLEIQQGVNPFFIGRSEDCNCKIEDNRLSRVHCFIFKKRHAVGKSMYESPAQGLDDIWYCHTGTNVSYLNNNRMIQGTKFLLQDGDEIKIIWDKNNKFVIGFKVEINDTTGLFNEGLGMLQEQRVVLKQTAEEKDLVKKLTQMMAAQRANQPSASSSSMSAKKPPVSDTNNNGNNSVLNDLVESPINANTGNILKRIHSVSLSQSQIDPSKKVKRAKLDQTSKGPENLQFS
partner: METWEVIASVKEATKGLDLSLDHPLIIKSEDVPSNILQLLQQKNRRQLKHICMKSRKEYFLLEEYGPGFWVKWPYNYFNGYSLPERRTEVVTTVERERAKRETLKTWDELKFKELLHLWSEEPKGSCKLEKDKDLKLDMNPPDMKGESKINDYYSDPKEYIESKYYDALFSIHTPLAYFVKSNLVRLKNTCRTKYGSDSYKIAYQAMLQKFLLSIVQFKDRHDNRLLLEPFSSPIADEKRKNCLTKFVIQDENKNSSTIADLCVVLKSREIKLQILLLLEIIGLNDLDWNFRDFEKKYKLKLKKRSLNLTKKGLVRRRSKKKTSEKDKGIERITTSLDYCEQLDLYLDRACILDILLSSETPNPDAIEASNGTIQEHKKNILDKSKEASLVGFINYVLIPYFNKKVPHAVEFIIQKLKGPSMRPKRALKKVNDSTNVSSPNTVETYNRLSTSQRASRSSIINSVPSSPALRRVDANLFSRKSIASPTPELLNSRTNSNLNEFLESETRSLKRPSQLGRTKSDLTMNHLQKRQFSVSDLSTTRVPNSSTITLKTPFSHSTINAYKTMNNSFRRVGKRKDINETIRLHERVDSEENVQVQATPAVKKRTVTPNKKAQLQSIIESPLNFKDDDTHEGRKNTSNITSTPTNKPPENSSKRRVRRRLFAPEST

Variants of: B1
Settings: with sld3_yeast SLD3, P53135

effect of a mutation on the interaction | Variant
disrupting interaction | K227A
